In US20070098681A1:
Values joined by “and” are separate entries in the source; they are usually repeats but may differ in a detail not shown here. Equal values may be shown once.

Experiments:
DR5-IgG (human) [1] = assay: method not stated; against zinc-bound Apo-2L
DR5-IgG (human) [2] = assay: phage bound and eluted from DR5-IgG coated well against blank well; phage grown at 37 C

| Substance | fold decrease in DR5 affinity (DR5-IgG (human) [1]) | Enrichment (ratio (DR5-IgG well / blank well)) (DR5-IgG (human) [2]) |
| --- | --- | --- |
| Apo-2L after removal of the bound metal by dialysis against chelating agents (ligand) | 7 fold |  |
| wild-type Apo2L/TRAIL (residues 96-281) displayed on M13 phage (ligand) |  | 1.5 and 3.3 |
